Results as given in the nanobody polyreactivity screen of Harvey et al. (2022).

Assay: yeast display, Sf9 membrane polyspecificity reagent, FACS + sequencing; frameworks hold sequencing errors
Outline: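 In a synthetic yeast display library (Saccharomyces cerevisiae BJ5465), nanobody expression was induced with galactose for 36–48 hours. FACS gates were set low and high (top ~1%) using anti-HA fluorescence for expression and streptavidin fluorescence for binding of the Sf9 membrane reagent. Each polyreactivity label is drawn from the gate of origin.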

Sequence | polyreactivity (PSR sort gate)
QVQLVESGGGLVQAGGSLRLSCADSGFILDYNTMGWYRQAPGKERELVAAISSSGDTTYYADSVKGRFTISRDNAKNTVYLQMNSLKPEDTAVYYCAREYGDGYEYWGQGTQVTVSS | low polyreactivity
QVQLVESGGGLVQAGGSLRLSCAASGRTFQRYAMGWYRQAPGKERELVAAISFSGGSTYYADSVKGRFTISRDNAKNTVYLQMNSLKPEDTAVYYCAAYHARSGYDSWGQGTQVTVSS | high polyreactivity
QVQLVQSGGGLVQAGGSLRLSCAASGFTLRRNAMGWYRQAPGKERELVAAISSSGSTYYADSVKGRFTISRDNAKNTVYLQMNSLKPEDTAVYYCAASATYKVRGGYWGQGTQVTVSS | high polyreactivity
QVQLVESGGGLVQAGGSLRLSCAASGSIFQRNAMGWYRQAPGKERELVAAITYSGGGTYYADSVKGRFTISRDNAKNTVYLQMNSLKPEDTAVYYCAADYKSKYSGYIYDYWGQGTQVTVSS | low polyreactivity
QVQLVESGGGLVQAGGSLRLSCAASGRIIDRNAMGWYRQAPGKERELVAAISSSGSTNYADSVKGRFTISRDNAKNTVYLQLNSLKPEDTAVYYCAARWRSVLASGTRPVSFDYWGQGTQVTVSS | low polyreactivity
QVQLVESGGGLVQAGGSLRLSCAASGSIFYGNAMGWYRQAPGKERELVAAISGSGGRTYYADSVKGRFTISRDNAKNTVYLQMISLKTEDTAVYYCAASAPGGQDDYWGQGTQVTVSS | high polyreactivity
QVQLVESGGGLVQAGGSLRLSCASSGLIFGANAMGWYRQAPVKARELVAVITSDGSTDYADSVKGRFIISRDNAKNTVYLQMNSLKPEDTAVYYCATTFYLIFGYTYSAYYYWGHGTQVTVSS | high polyreactivity
QVQLVESGGGLVQAGGSLRLSCAASGITFLSNAMGWYRQAPGKERELVAAIDWRGDSTYYADSVKGRFTISRDNAKNTGYLQMNRLKPEDTAVYYCNADISGSGQWDGYDYWGQGTQVTVSS | low polyreactivity
QVQLEESGGGLVQPGGSLRLSCAASGTTIGHNAMGLYREAPGKERELVAAISNSGTRTYYADSVKGRFTISRDNAKNTVYLQMNILKPEDTAVYDCAARYYHIYTKYLQGSDYWGQGTQVTVSS | high polyreactivity
QVQLVESGGGLVQAGGSLRLSCAASGIIFKTYTMGWYRTAPGKERELVAAITFSGGSTYYADSVKGRFTISRDNAKNTVYLQMNSLKPEDTAVYYCADTHRFWWYSDDYWGQGTQVTVSS | high polyreactivity
QVQLVESGGGLVQAGGSLRLSCAASGRIFILNTMGWYRQAPGKERELLAGISYSGSTYYADSVKGRFTISRDNAKNTVYLQMNSLKPDDTAVYYCAADYDAAWYNDGYYYWGQGTQVTVSS | low polyreactivity
QVQRVESGGGLVQAGGSLRLSCAASGFTLDYYTMGWYRQAPGKERELVAAISWIGTSTYYADSVKGRFTISRDNAKNTVYIQMNSLKPEDTAVYYCAAVGASVDDYYWGQGSQVTVSS | high polyreactivity
QDQLVESCGALLQAGGSLRLSCAASGITIDTYFMGRYRQAPGKETELLAAISNSDGSTYYADSVKGRFTISRDNAKHTVYLPMNSLKPEDTAVYYCNAQSYYSWHLRYDYWGQGTQVTVSS | high polyreactivity
QVHLVESGGGLVQAGGSLRLSCAASGSIFFDGNAMGWYRQAPGKERELVAAISVSGGSTYYADSVKGRFTISRDNAKNTVYLQMNSLKPEDTAVYYCAKYPSNSYVPGDYWGQGTQVTVSS | low polyreactivity
QVQLVESGVGLVQAGGSLRLSCAASGFIFSSYAMGWYRQAPGKERELVAAISRSGGRTYYADSVKGRFTISRDNAKNTVYLQMNSLKPEDTAVYYCDATWLGTDGDDYWGQGTQVTVSS | high polyreactivity
QVQLQESGGGLVQAGGSLRLSCAASGYISSWYPMGWYRQAPGKEREFVATLAPGATTYYADSVKGRFTISRDYAKNTVYLQMIRLKPEDTAVYYFAAGPENNDFYSFWGQGSQVTVSS | low polyreactivity

Sequence | polyreactivity (PSR sort gate)
QVQLVESGGGLVQAGGSLRISCAASGRSFGVNAMGWYRQAPGKERELVAVISSGGSTYYADSVKVRFTISRDNAKNTVYLQMNSLKPEDTAVYYCNAVFGRWFPYNLSDYWGQGTQVTVSS | low polyreactivity
QVHLVESGGGLVQAGRSLRLSCAASGFIFKPYAMVRYRQAPGKERELVAAITVNGGTTYYADSVKARFTISRDNAKNTVYLQMNSLKPEDTAVYYCNRGRPGGPSWYHYDYWGQGTQVTVSS | high polyreactivity
QVQLVESGGGLVQAGGSLRLSCAASGSIFATHAMGWYRQAPGQDRELVAAISWRTGSTVYADSVKGRFTISRDNAKNTDYLQMNSLKPEDTAVYYCAATRRGDNYRYDYWGQGTQVTVSS | high polyreactivity
QVQLVESGGGLVQAGGSLRLSCAASGRIFSWYAMGWYRQAPGKERELVARITTRGGNTYYADSVKGRFTFSRDNAKNTVYLQMNSLKPEVTAVYYCAARHPYPIYDYWGQGTQVSVSS | low polyreactivity
QLQLVESGGGLVQAGGSLRLSCAASGRIFYVNAMGWYRPAPGKERELVAAISRSGSSTYYADSVKGRFTISRDNAKNTVYLQMNSLKPEDTADYYCAARYYGRSQHHFDYWGQGTQVTVSS | high polyreactivity
QVQLQESGGVLVQEGGSLRLSCAASGNISPQADMGWYRQATGTERELVASIGTGGTTNYADSVKGRFTISRDNAKNTVYLQMNRLKPDDTAVYYCAAVRYEYNPYDYWGQGTQVTVSS | low polyreactivity
QVQLVESGGGLVQAGGSLRLSCASSGRIFKYYSMGCYRQSPGKVRELVASISWSGGSTYYADSVKGRFTISRDNAKNTVYLQMNSLKPEDTAVYYCAAYVTYLRYRSNIAYYGYDYWGQGTQVTVSS | high polyreactivity
QVQLVESGGGLVQAGGSLRLSCAASGSTFTENAMGWYRQAPGKERELVATISTSDGSTHYADSVKGRFTISRDNAKNTVYLQMNSLKPEDTAVYYCAARPDYFLWHGYYTRRHYYWGQGTQVTVSS | low polyreactivity
QVQLVESGGGLVQAGGSLRLSCAASGSTFKSYAMGWYRQEPGKERELVAAITVSGGSTYYADSVKGRFTISRDNAKNTVYLQMNSLKPEDTAVYYCAADSVLLKDTGYDYWGQGTQVTVSS | low polyreactivity
QVQLVESGGGLVQAGGSLRLSCAASGITFRHNAMGWYRQAPGKERELVAAISRRTYYSDSVKGRFTISRDNAKNTVYLQMNSLKPEDTAVYYCAKDVDYVSDSPYDYWGQGTQVTVSS | low polyreactivity
QVQLVESGGGLVQAGGSLRLSCAASGLTFYSNAMRWYRQAPGKEREVVARISTGGSTYADSVKGRFTISRDNAKKTVYLQMNSLKPQDTEVYYCAKLPPRGIDDEYWGQGTQVTVSS | low polyreactivity
QVQLVESGGALVQAGGSLRLSCAASGSIFSSYAMGWYRQAPGKERELVAAISGSGDSTYYADSVKGRFTISRDNAKNTVYLQMNSLKPEDTAVYYCNAVYAFNGYDYWGQGTQVTVSS | low polyreactivity
QVQLVESGGGLVQAGGSLRLICAASGNSYIYNAMGSYRQAPGKEMELVAAISSRGGTTSDAVSVKGRFTISRDHAKNTVYFQMNSLKPEDTAVYYCAARQVVPSYRYPYGYWGQGTQVTVSS | high polyreactivity
QVQLVESGGGLVQAGGSLRLSCAASGFIFKPYTMAWYRQAPGKERELVATITFSGGSTYYADSVKGRFTISRDNAKNTVYLQMNSLKPEDTAVYYCAAPRYYRGYAIYDYWGQGTQVTVSS | low polyreactivity
QVQLVESGGGLVQAGGSLRLSCAASGRIFVANGLGWYRQAPGKERELVAAITWSGDNTYYADSVKGRFTISRDNAKNTVYLQMNSLKPEDTAVYYCATPRSWYFPYGYWGQGTQVTVSS | high polyreactivity
QVQLVESGGGLVQAGGSLRLSCAASGSIFRGNAMGWYRQAPGKEMELVAAINKSGGSTYYADSVKGRFTISRDNAKNTVYLQMNSLKPEDTAVYYCAAVYKRLQPYGYWGQGTQVTVSS | high polyreactivity
